Laboratory results as given in patent US12612459B2, “Methods of identifying agents that block MCD28 cleavage by MMPS” (BIOND BIOLOGICS LTD., priority 2019, dated 2026).
One block for each molecule: values may come before it. Where no end group is shown, it is not given here.

Legend:
[1] = target: T1, MMP-2 (Homo sapiens, UniProt P08253); assay: Fluorogenic assay: cleavage of quenched fluorogenic human CD28 stalk region peptide by MMP-2; type: biochemical; conditions: increasing dose of inhibitor; FIG. 1C
T1 construct: purchased AnaSpec and R&D Systems AS-72005 / 902-MP
T1 sequence (P08253 110-660): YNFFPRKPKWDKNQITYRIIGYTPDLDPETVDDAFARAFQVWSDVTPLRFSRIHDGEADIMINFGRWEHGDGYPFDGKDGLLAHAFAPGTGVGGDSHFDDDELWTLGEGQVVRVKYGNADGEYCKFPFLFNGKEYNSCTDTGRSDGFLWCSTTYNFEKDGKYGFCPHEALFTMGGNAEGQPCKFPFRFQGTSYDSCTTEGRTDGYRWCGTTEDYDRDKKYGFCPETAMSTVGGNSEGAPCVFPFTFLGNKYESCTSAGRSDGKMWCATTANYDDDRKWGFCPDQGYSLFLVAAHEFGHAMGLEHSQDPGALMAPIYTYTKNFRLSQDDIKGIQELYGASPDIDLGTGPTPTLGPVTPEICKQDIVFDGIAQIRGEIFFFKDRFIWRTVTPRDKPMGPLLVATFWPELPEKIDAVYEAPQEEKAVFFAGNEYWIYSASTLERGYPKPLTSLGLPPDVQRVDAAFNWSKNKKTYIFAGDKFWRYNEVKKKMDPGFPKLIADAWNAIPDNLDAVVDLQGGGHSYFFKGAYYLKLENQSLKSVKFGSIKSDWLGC
Experimental: (§1) FIGS. 1A-1E. (1A-1E) Line graphs of fluorescence from quenched fluorogenic peptides of the human CD28 stalk region incubated with (1A) various recombinant human sheddases, (1B) varying concentrations of rhMMP-2, (1C) MMP-2 and various concentrations of the MMP-2 specific inhibitor ARP-100, (1D) varying concentrations of rhMMP-13, or (1E) MMP-13 and broad MMP inhibitor TMI-1.
(§2) Matrix Metalloproteinases and ADAM's—Commercial recombinant human metalloproteinases MMP-1 (Cat. No. AS-55575), MMP-9 (Cat. No. AS-55576), MMP-10 (Cat. No. AS-72067), MMP-12 (Cat. No. AS-55525) and MMP-13 (Cat. No. AS-72257) are from AnaSpec. […]
(§3) Fluorogenic Assay—The assay was performed with indicated MMP's (10 or 30 ng) in 50 mM Tris, 10 mM CaCl2), 150 mM NaCl, 0.05% Brij-35, pH 7.5 or ADAM10/ADAM17 (5 μg/mL) in 25 mM Tris, 2.5 mM ZnCl2 and 0.005% Brij-35, pH 9. Cleavage of the fluorogenic substrate (10 μM) was measured at Ex340/Em490 nm using Biotek Synergy H1 spectrofluorometer.
(§4) It has been hypothesized that ADAM-10 and ADAM-17 may play a role in this shedding. […] When intact, the fluorochrome on the peptide is quenched and no fluorescence is measured. Cleavage of the peptide allows the fluorochrome to dissociate from the quencher and fluorescence is measurable by a dedicated reader. […] The peptide alone without any sheddase added was used as a control to normalize the readings. […]

[2] = target: T2, MMP-13 (Homo sapiens, UniProt P45452); assay: Fluorogenic assay: cleavage of quenched fluorogenic human CD28 stalk region peptide by MMP-13; type: biochemical; conditions: increasing dose of inhibitor; FIG. 1E
Experimental: as §1, §2, §3, §4

[3] = system: chronically stimulated human PBMCs; conditions: previously shown in WO2019/175885; dose dependent; cited from earlier work
[4] = target: T1, MMP-2; assay: In-vitro cleavage assay of c-Myc tagged, biotinylated dimeric CD28 stalk region peptide by rhMMP-2 (ELISA detection of intact peptide); type: biochemical; conditions: 25 ng and 50 ng MMP-2, 5-hour incubation; FIG. 4C
[5] = target: T2, MMP-13; assay: In-vitro cleavage assay of c-Myc tagged, biotinylated dimeric CD28 stalk region peptide by rhMMP-13 (ELISA detection of intact peptide); type: biochemical; conditions: 25 ng and 50 ng MMP-13, 5-hour incubation; FIG. 4D
[6] = target: T3, human CD28 stalk region (Homo sapiens, UniProt P10747); assay: Binding to human CD28 stalk region dimeric peptide by ELISA; conditions: for binding to human CD28 stalk region sequence: ELISA, serial dilution of VHH clones, FIG. 5; for specific binding to MMP cleavage site of human CD28: WT versus L145K stalk region dimeric peptides, VHH 0.2-5 μg/mL, FIG. 7
T3 construct: human CD28 stalk region (His134-Pro152)

Molecule: CC(C)ON(CC(=O)NO)S(=O)(=O)c1ccc(-c2ccccc2)cc1 [ARP-100]
cleavage of the CD28 stalk fluorogenic peptide by MMP-2 [1]: cleavage decreased in a dose dependent manner

Molecule: CC#CCOc1ccc(S(=O)(=O)N2CCSC(C)(C)[C@@H]2C(=O)NO)cc1 [TMI-1]
cleavage of the CD28 stalk fluorogenic peptide by MMP-13 [2]: cleavage decreased in a dose dependent manner

Molecule: TAPI
levels of sCD28 produced by chronically stimulated human PBMCs [3]: diminish levels of sCD28

peptide cleaved by MMP-2 [4]: < 5%
peptide cleaved by MMP-13 [5]: < 5%
Molecule: mutated peptide: cMyc tagged, biotinylated dimeric CD28 stalk region peptide with L145K, EQKLISEEDLGGGGHVKGKHLCPSPKFPGPSKP (SEQ ID NO: 19) (EQKLISEEDLGGGGHVKGKHLCPSPKFPGPSKP-biotin; also: dimeric peptide) [reference compound]

B1: clone 4A1: llama-derived VHH single domain antibody binding the human CD28 stalk region, SEQ ID NO: 31, C-terminal His-tag (protein)
VHH: QVQLVESGGGLVQAGGSLRLSCAASGSIFSINAMGWYRQAPGKQRERVAAITSGGSTNYADSVKGRFTISRDNAKNTVYLQMNNLEPRDAGVYYCVVDLYGEDYWIWGQGTQVTVSSAAAHHHHHH
modifications: C-terminal His-tag
binding to human CD28 stalk region sequence [6]: specifically bind the stalk region of human CD28
specific binding to MMP cleavage site of human CD28 [6]: bind specifically to MMP cleavage site of human CD28

B2: clone 4A4: llama-derived VHH single domain antibody binding the human CD28 stalk region, SEQ ID NO: 30, C-terminal His-tag (protein)
VHH: EVQLVESGGGLVQAGGSLRLSCAASGSLFSINAMAWYRQAPGKQRELVAAITSSGSTNYANSVKGRFTVSRDNAKNTMYLQMNSLKPEDTAVYYCVVDEYGSDYWIWGQGTQVTVSSAAAHHHHHH
modifications: C-terminal His-tag
binding to human CD28 stalk region sequence [6]: specifically bind the stalk region of human CD28
specific binding to MMP cleavage site of human CD28 [6]: bind specifically to MMP cleavage site of human CD28
